Source: US20170029894A1 (Novartis, published 2017)
Blank lines part the entries; values can stand above or below the molecule they belong to.

What was measured:
Experiment in all cases: peptide array of 15-mer IL-13 peptides
[1] = target: IL-13 peptide 29 (…) (human)
[2] = target: IL-13 peptide 18 (…) (human)
[3] = target: IL-13 peptide 12 (…) (human)
[4] = target: IL-13 peptide 17 (…) (human)
[5] = target: IL-13 peptide 16 (…) (human)
[6] = target: IL-13 peptide 1 (…) (human)
[7] = target: IL-13 peptide 23 (…) (human)
[8] = target: IL-13 peptide 20 (…) (human)
[9] = target: IL-13 peptide 21 (…) (human)
[10] = target: IL-13 peptide 25 (…) (human)
[11] = target: IL-13 peptide 28 (…) (human)
[12] = target: IL-13 peptide 10 (…) (human)
[13] = target: IL-13 peptide 11 (…) (human)
[14] = target: IL-13 peptide 26 (…) (human)
[15] = target: IL-13 peptide 24 (…) (human)
[16] = target: IL-13 peptide 27 (…) (human)
[17] = target: IL-13 peptide 22 (…) (human)
[18] = target: IL-13 peptide 30 (…) (human)
[19] = target: IL-13 peptide 15 (…) (human)
[20] = target: IL-13 peptide 13 (…) (human)
[21] = target: IL-13 peptide 19 (…) (human)
[22] = target: IL-13 peptide 2 (…) (human)
[23] = target: IL-13 peptide 3 (…) (human)
[24] = target: IL-13 peptide 14 (…) (human)
[25] = target: T1, IL-13 peptide 30 (DTKIEVAQFVKDLLL) (human)
T1 peptide: DTKIEVAQFVKDLLL
Description: (§1) The sequence of IL-13 was probed at the peptide level to identify the binding site with ANTIBODY 01951/G12. Thirty four 15-mer peptides were synthesized in order to scan the entire sequence with 12 residue overlap starting from the N-terminus. The synthesis of the peptides, preparation of the peptide-array slides, incubation with antibodies and data analysis where done as described by Maksimov et al. (PLoS ONE 7(3): e34212).
(§2) The binding signal intensity (light unit) observed is reported for each peptide, in column 1 against a control unrelated human antibody and in column 2 against ANTIBODY 01951/G12. Signals above 10000 Light Units are considered as being significant. 2 overlapping peptides in the set of the 34 peptides produced a signal above that threshold, peptide 22 ([…]) (SEQ ID NO: 31) and peptide 23 ([…]) (SEQ ID NO: 32). The overlapping sequence between both peptides is […] (SEQ ID NO: 33).

[26] = target: T2, IL-13 peptide 9 (QKAPLCNGSMVWSIN) (human)
T2 peptide: QKAPLCNGSMVWSIN
Description: as §1, §2

[27] = target: T3, IL-13 peptide 16 (CAALESLINVSGCSA) (human)
T3 peptide: CAALESLINVSGCSA
Description: as §1, §2

[28] = target: T4, IL-13 peptide 29 (HVRDTKIEVAQFVKD) (human)
T4 peptide: HVRDTKIEVAQFVKD
Description: as §1, §2

[29] = target: T5, IL-13 peptide 6 (EELVNITQNQKAPLC) (human)
T5 peptide: EELVNITQNQKAPLC
Description: as §1, §2

[30] = target: T6, IL-13 peptide 22 (TQRMLSGFCPHKVSA) (human)
T6 peptide: TQRMLSGFCPHKVSA
Description: as §1, §2

[31] = target: T7, IL-13 peptide 2 (PVPPSTALRELIEEL) (human)
T7 peptide: PVPPSTALRELIEEL
Description: as §1, §2

[32] = target: T8, IL-13 peptide 8 (TQNQKAPLCNGSMVW) (human)
T8 peptide: TQNQKAPLCNGSMVW
Description: as §1, §2

[33] = target: T9, IL-13 peptide 12 (MVWSINLTAGMYCAA) (human)
T9 peptide: MVWSINLTAGMYCAA
Description: as §1, §2

[34] = target: T10, IL-13 peptide 13 (SINLTAGMYCAALES) (human)
T10 peptide: SINLTAGMYCAALES
Description: as §1, §2

[35] = target: T11, IL-13 peptide 15 (GMYCAALESLINVSG) (human)
T11 peptide: GMYCAALESLINVSG
Description: as §1, §2

[36] = target: T12, IL-13 peptide 14 (LTAGMYCAALESLIN) (human)
T12 peptide: LTAGMYCAALESLIN
Description: as §1, §2

[37] = target: T13, IL-13 peptide 31 (IEVAQFVKDLLLHLK) (human)
T13 peptide: IEVAQFVKDLLLHLK
Description: as §1, §2

[38] = target: T14, IL-13 peptide 4 (ALRELIEELVNITQN) (human)
T14 peptide: ALRELIEELVNITQN
Description: as §1, §2

[39] = target: T15, IL-13 peptide 25 (PHKVSAGQFSSLHVR) (human)
T15 peptide: PHKVSAGQFSSLHVR
Description: as §1, §2

[40] = target: T16, IL-13 peptide 1 (SPGPVPPSTALRELI) (human)
T16 peptide: SPGPVPPSTALRELI
Description: as §1, §2

[41] = target: T17, IL-13 peptide 28 (SSLHVRDTKIEVAQF) (human)
T17 peptide: SSLHVRDTKIEVAQF
Description: as §1, §2

[42] = target: T18, IL-13 peptide 11 (NGSMVWSINLTAGMY) (human)
T18 peptide: NGSMVWSINLTAGMY
Description: as §1, §2

[43] = target: T19, IL-13 peptide 20 (CSAIEKTQRMLSGFC) (human)
T19 peptide: CSAIEKTQRMLSGFC
Description: as §1, §2

[44] = target: T20, IL-13 peptide 23 (MLSGFCPHKVSAGQF) (human)
T20 peptide: MLSGFCPHKVSAGQF
Description: as §1, §2

[45] = target: T21, IL-13 peptide 17 (LESLINVSGCSAIEK) (human)
T21 peptide: LESLINVSGCSAIEK
Description: as §1, §2

[46] = target: T22, IL-13 peptide 7 (VNITQNQKAPLCNGS) (human)
T22 peptide: VNITQNQKAPLCNGS
Description: as §1, §2

[47] = target: T23, IL-13 peptide 10 (PLCNGSMVWSINLTA) (human)
T23 peptide: PLCNGSMVWSINLTA
Description: as §1, §2

[48] = target: T24, IL-13 peptide 3 (PSTALRELIEELVNI) (human)
T24 peptide: PSTALRELIEELVNI
Description: as §1, §2

[49] = target: T25, IL-13 peptide 21 (IEKTQRMLSGFCPHK) (human)
T25 peptide: IEKTQRMLSGFCPHK
Description: as §1, §2

[50] = target: T26, IL-13 peptide 5 (ELIEELVNITQNQKA) (human)
T26 peptide: ELIEELVNITQNQKA
Description: as §1, §2

[51] = target: T27, IL-13 peptide 33 (VKDLLLHLKKLFREG) (human)
T27 peptide: VKDLLLHLKKLFREG
Description: as §1, §2

[52] = target: T28, IL-13 peptide 32 (AQFVKDLLLHLKKLF) (human)
T28 peptide: AQFVKDLLLHLKKLF
Description: as §1, §2

[53] = target: T29, IL-13 peptide 27 (GQFSSLHVRDTKIEV) (human)
T29 peptide: GQFSSLHVRDTKIEV
Description: as §1, §2

[54] = target: T30, IL-13 peptide 19 (VSGCSAIEKTQRMLS) (human)
T30 peptide: VSGCSAIEKTQRMLS
Description: as §1, §2

[55] = target: T31, IL-13 peptide 26 (VSAGQFSSLHVRDTK) (human)
T31 peptide: VSAGQFSSLHVRDTK
Description: as §1, §2

[56] = target: T32, IL-13 peptide 34 (LLLHLKKLFREGRFN) (human)
T32 peptide: LLLHLKKLFREGRFN
Description: as §1, §2

[57] = target: T33, IL-13 peptide 18 (LINVSGCSAIEKTQR) (human)
T33 peptide: LINVSGCSAIEKTQR
Description: as §1, §2

Corrected Mean signal intensity (Light Unit) [1]: -17 Light Unit | Corrected Mean signal intensity (Light Unit) [2]: 12.5 Light Unit | Corrected Mean signal intensity (Light Unit) [3]: 19 Light Unit | Corrected Mean signal intensity (Light Unit) [4]: 18.7 Light Unit | Corrected Mean signal intensity (Light Unit) [5]: 1 Light Unit | Corrected Mean signal intensity (Light Unit) [6]: 44.3 Light Unit | Corrected Mean signal intensity (Light Unit) [7]: 23 Light Unit | Corrected Mean signal intensity (Light Unit) [8]: 26 Light Unit | Corrected Mean signal intensity (Light Unit) [9]: 101 Light Unit | Corrected Mean signal intensity (Light Unit) [10]: -24.7 Light Unit | Corrected Mean signal intensity (Light Unit) [11]: -6 Light Unit | Corrected Mean signal intensity (Light Unit) [12]: -6.5 Light Unit | Corrected Mean signal intensity (Light Unit) [13]: -5 Light Unit | Corrected Mean signal intensity (Light Unit) [14]: 3.7 Light Unit | Corrected Mean signal intensity (Light Unit) [15]: 3.3 Light Unit | Corrected Mean signal intensity (Light Unit) [16]: -10.5 Light Unit | Corrected Mean signal intensity (Light Unit) [17]: 123 Light Unit | Corrected Mean signal intensity (Light Unit) [18]: -13 Light Unit | Corrected Mean signal intensity (Light Unit) [19]: 1 Light Unit | Corrected Mean signal intensity (Light Unit) [20]: -1.5 Light Unit | Corrected Mean signal intensity (Light Unit) [21]: 15 Light Unit | Corrected Mean signal intensity (Light Unit) [22]: -9 Light Unit | Corrected Mean signal intensity (Light Unit) [23]: -7.3 Light Unit | Corrected Mean signal intensity (Light Unit) [24]: 1 Light Unit
Molecule: control unrelated human antibody

Corrected Mean signal intensity (Light Unit) [15]: 493 Light Unit | Corrected Mean signal intensity (Light Unit) [25]: -438 Light Unit | Corrected Mean signal intensity (Light Unit) [26]: -518 Light Unit | Corrected Mean signal intensity (Light Unit) [27]: -587 Light Unit | Corrected Mean signal intensity (Light Unit) [28]: -734 Light Unit | Corrected Mean signal intensity (Light Unit) [29]: 1 Light Unit | binding result [29]: no binding (tested: 10000 Light Units) | Corrected Mean signal intensity (Light Unit) [30]: 38600 Light Unit | Corrected Mean signal intensity (Light Unit) [31]: -1130 Light Unit | Corrected Mean signal intensity (Light Unit) [32]: -350 Light Unit | Corrected Mean signal intensity (Light Unit) [33]: 56.5 Light Unit | binding result [33]: no binding (tested: 10000 Light Units) | Corrected Mean signal intensity (Light Unit) [34]: -757 Light Unit | Corrected Mean signal intensity (Light Unit) [35]: -987 Light Unit | Corrected Mean signal intensity (Light Unit) [36]: -99.7 Light Unit | Corrected Mean signal intensity (Light Unit) [37]: -810 Light Unit | Corrected Mean signal intensity (Light Unit) [38]: -207 Light Unit | Corrected Mean signal intensity (Light Unit) [39]: -386 Light Unit | Corrected Mean signal intensity (Light Unit) [40]: -1070 Light Unit | Corrected Mean signal intensity (Light Unit) [41]: -170 Light Unit | Corrected Mean signal intensity (Light Unit) [42]: -132 Light Unit | Corrected Mean signal intensity (Light Unit) [43]: -721 Light Unit | Corrected Mean signal intensity (Light Unit) [44]: 48100 Light Unit | Corrected Mean signal intensity (Light Unit) [45]: -340 Light Unit | Corrected Mean signal intensity (Light Unit) [46]: -405 Light Unit | Corrected Mean signal intensity (Light Unit) [47]: -982 Light Unit | Corrected Mean signal intensity (Light Unit) [48]: -210 Light Unit | Corrected Mean signal intensity (Light Unit) [49]: 2210 Light Unit | Corrected Mean signal intensity (Light Unit) [50]: -131 Light Unit | Corrected Mean signal intensity (Light Unit) [51]: -203 Light Unit | Corrected Mean signal intensity (Light Unit) [52]: -746 Light Unit | Corrected Mean signal intensity (Light Unit) [53]: -291 Light Unit | Corrected Mean signal intensity (Light Unit) [54]: -830 Light Unit | Corrected Mean signal intensity (Light Unit) [55]: -778 Light Unit | Corrected Mean signal intensity (Light Unit) [56]: 7150 Light Unit | Corrected Mean signal intensity (Light Unit) [57]: -539 Light Unit
B1: ANTIBODY 01951/G12 (antibody, human IgG1, kappa, V domains shown)
VH: EVQLVESGGGVVQPGRSLRLSCAASGFTFSSYGMHWVRQAPGKGLEWVAIIWYDGSNKYYADSVKGRFTISRDNSKNTLYLQMNSLRAEDTAVYYCARLWFGDLDAFDIWGQGTMVTVSS
VL: EIVLTQSPATLSLSPGERAILSCRAGQSVSSYLVWYQQKPGQAPRLLIYDASNRATGIPARFSGSGSGTDFTLTISSLEPEDFAVYYCQQRSSWPPVYTFGQGTKLEIKR
notes: also called target antibody
